The target of assay [1] is T1, NfL-His重组蛋白 (神经丝轻链蛋白, Neurofilament light chain) (Homo sapiens (Human), UniProt P07196 1-543).
T1 construct: Recombinant, expressed in 293F cells, C-terminal His tag; used as immunogen, sorting antigen and screening antigen; also called NfL-His蛋白
T1 sequence: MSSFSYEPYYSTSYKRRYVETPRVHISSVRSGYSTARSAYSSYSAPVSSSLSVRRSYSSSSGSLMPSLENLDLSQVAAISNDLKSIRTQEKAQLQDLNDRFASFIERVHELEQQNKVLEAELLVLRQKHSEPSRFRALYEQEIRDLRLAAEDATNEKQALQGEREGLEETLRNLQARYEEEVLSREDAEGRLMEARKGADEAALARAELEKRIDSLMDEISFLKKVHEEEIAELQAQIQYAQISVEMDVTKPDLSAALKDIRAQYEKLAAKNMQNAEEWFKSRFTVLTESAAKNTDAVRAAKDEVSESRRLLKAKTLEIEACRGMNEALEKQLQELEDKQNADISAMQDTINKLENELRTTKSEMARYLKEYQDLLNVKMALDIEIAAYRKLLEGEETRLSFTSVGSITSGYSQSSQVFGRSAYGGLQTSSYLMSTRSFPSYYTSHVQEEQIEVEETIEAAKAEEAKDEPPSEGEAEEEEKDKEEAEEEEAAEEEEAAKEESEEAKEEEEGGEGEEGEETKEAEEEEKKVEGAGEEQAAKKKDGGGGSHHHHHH
Description: sandwich chemiluminescence, NfL at 10000pg/mL, Rabbit anti-NfL mAb on beads as capture, acridinium ester labelled antibody as detection.

The target in assay [2] is T1, NfL-His重组蛋白 (神经丝轻链蛋白, Neurofilament …). Nature of the assay: sandwich ELISA, fixed antibody of the pair. On the technique in general: In an ELISA, binding on a coated surface is turned into a signal by an enzyme label.

B1: Anti-NfL-rRmab-1 (antibody, V domains shown)
VH: QSVEESGGRLVTPGTPLTLTCTASGFSLSIHDMSWVRQAPGKGLEWIGLISSNNNTYYASWAKGRFTISKTSTTVDLKITSPTTEDTATYFCARGGFSTDLWGPGTPVTVSS
VL: DVVMTQTPASVSEPVGGTVTIKCQASQSIYTYLSWYQQKPGQPPKLLIYGASNLASGVSSRFKGSGSGTDYTLTISGVQCDDAATYYCQCTYFSSSYVGGFGGGTEVVVK
notes: Labelled with acridinium ester as the detection antibody in the chemiluminescence assay; also called NfL特异性抗体; 优选抗体
For B1, the binding result in assay [1] was “binds”.

B2: Rabbit anti-NfL mAb (antibody, V domains shown)
VH: QSVEESGGRLVTPGTPLTLTCTASGIDLSNYAMNWVHQAPGKGLEWIAIIYASGSTYYTTWAKGRFTISKTSSTTVDLKITSPTTEDTATYFCARALSMTNVYTFNIWGPGTLVTVSS
VL: DVVMTQTPASVSEPVGGTVTIKCQASQNIYNNLAWYQQKPGQPPKLLIYKASTLASGVSSRFKGSGSGTEFTLTISDLECADAATYYCQCTYGSSYVAFGGGTEVVVK
notes: Rabbit monoclonal antibody developed earlier by the applicant; Used as the fixed capture antibody (coupled to magnetic beads in the chemiluminescence assay); also called 包被抗体; 配对抗体
As for B2, the binding result in assay [2] is “binds”.

For the origin of these results see CN117624356A (VAZYME MEDICAL CO LTD; HUNAN NOVAZYME MEDICAL TECH CO LTD, dated 2024).
